Assay results taken from patent US20060067886A1, “Gastrin receptor-avid peptide conjugates” (priority 1997, published 2006).

Assay: in vivo
Conditions: SCID, mouse, iv, 4 uCi, total radioactivity
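Further: SCID mice bearing bilateral flank PC-3 or MDA-MB-231 xenografts, tail-vein dosing, organs sampled from 15 min to 72 h post-injection, radioactivity measured with NaI well counter.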

Procedure: In vivo pharmacokinetic studies in human tumor bearing SCID mice. […] The xenograft models were produced by bilateral flank inoculation of 5×10^6 cells (PC-3 or MDA-MB-231 cells) per site. Four to six weeks post inoculation, palpable tumors were observed. At this point, the mice were injected with 4 μCi of the complex in 100/μL of isotonic saline via the tail vein. The mice were euthanized and tissues and organs were excised from the animals at selected times post-injection (p.i.), including 15 minutes, 30 minutes, 1 hour, 4 hours, 24 hours, 48 hours, and 72 hours p.i. Subsequently, the tissues and organs were weighed and counted in a NaI well counter and the percent injected dose (% ID) and % ID/g of each organ or tissue calculated.

CSCC[C@H](NC(=O)[C@H](CC(C)C)NC(=O)[C@H](Cc1cnc[nH]1)NC(=O)CNC(=O)[C@@H](NC(=O)[C@H](C)NC(=O)[C@H](Cc1c[nH]c2ccccc12)NC(=O)[C@H](CCC(N)=O)NC(=O)CCCCCCCNC(=O)CN1CCN(CC(=O)O)CCN(CC(=O)O)CCN(CC(=O)O)CC1)C(C)C)C(N)=O [111In-DOTA-8-Aoc-BBN[7-14]NH2, metal not drawn]
tissue uptake at 1 h (blood): 0.35 ± 0.08 %ID/g | tissue uptake at 4 h (blood): 0.08 ± 0.1 %ID/g | tissue uptake at 24 h (blood): 0.02 ± 0.03 %ID/g | tissue uptake at 1 h (heart): 0.15 ± 0.11 %ID/g | tissue uptake at 24 h (heart): 0.08 ± 0.06 %ID/g | tissue uptake at 1 h (kidney): 3.29 ± 0.56 %ID/g | tissue uptake at 4 h (kidney): 1.76 ± 0.15 %ID/g | tissue uptake at 24 h (kidney): 0.98 ± 0.28 %ID/g | tissue uptake at 1 h (large intestine): 5.14 ± 0.42 %ID/g | tissue uptake at 4 h (large intestine): 5.58 ± 1.26 %ID/g | tissue uptake at 24 h (large intestine): 2.76 ± 0.49 %ID/g | tissue uptake at 1 h (liver): 0.31 ± 0.04 %ID/g | tissue uptake at 4 h (liver): 0.15 ± 0.09 %ID/g | tissue uptake at 24 h (liver): 0.07 ± 0.02 %ID/g | tissue uptake at 1 h (lung): 0.31 ± 0.09 %ID/g | tissue uptake at 4 h (lung): 0.06 ± 0.06 %ID/g | tissue uptake at 24 h (lung): 0.05 ± 0.05 %ID/g | tissue uptake at 1 h (muscle): 0.08 ± 0.05 %ID/g | tissue uptake at 4 h (muscle): 0.06 ± 0.13 %ID/g | tissue uptake at 1 h (pancreas): 23.4 ± 4.99 %ID/g | tissue uptake at 4 h (pancreas): 17.9 ± 5 %ID/g | tissue uptake at 24 h (pancreas): 5.06 ± 0.77 %ID/g | tissue uptake at 1 h (small intestine): 5.15 ± 0.19 %ID/g | tissue uptake at 24 h (small intestine): 0.9 ± 0.14 %ID/g | tissue uptake at 1 h (spleen): 0.57 ± 0.1 %ID/g | tissue uptake at 4 h (spleen): 0.48 ± 0.25 %ID/g | tissue uptake at 24 h (spleen): 0.21 ± 0.07 %ID/g | tissue uptake at 4 h (stomach): 0.27 ± 0.08 %ID/g | tissue uptake at 24 h (stomach): 0.33 ± 0.1 %ID/g | tissue uptake at 1 h (tumor (Tumor 1)): 0.91 ± 0.16 %ID/g | tissue uptake at 4 h (tumor (Tumor 1)): 0.36 ± 0.13 %ID/g | tissue uptake at 24 h (tumor (Tumor 1)): 0.22 ± 0.07 %ID/g | tissue uptake at 1 h (tumor (Tumor 2)): 0.74 ± 0.27 %ID/g | tissue uptake at 4 h (tumor (Tumor 2)): 0.4 ± 0.23 %ID/g | tissue uptake at 24 h (tumor (Tumor 2)): 0.24 ± 0.15 %ID/g | tissue uptake at 1 h (tumor): 0.83 ± 0.23 %ID/g | dose excreted at 1 h (urine): 72.1 ± 3.55% | dose excreted at 4 h (urine): 84.3 ± 2.09% | dose excreted at 24 h (urine): 83.8 ± 1.41%
